The record followed here is US20180273623A1.

The assay deals with EGFR (human) (UniProt P00533). The experiment in a line: flow cytometry on HCC-1954 cells, upper panel; staining antibody not named on the sheet or in the legend, assigned by analogy with FIG. 28A and 28C; open histogram shifted from the hatched control. On the technique in general: A flow cytometer gives signals particle by particle.

For the substance EGFR 528 (phb 704) (antibody), the MFI came to 262.
